These results are taken from PMC12133150.

This test deals with TET2 (UniProt Q6N021). As to the kind of experiment: co-IP of transfected HNF4α with TET2. The settings on record: reference: wild type; sites S313.

As for HNF4α (from UniProt P41235) S313A, the “binding against the reference” value is on record as “stronger”.
